From publication PMC7608589, “Divergent architecture of the heterotrimeric NatC complex explains N-terminal acetylation of cognate substrates” (Nature Communications, 2020)

Assays:
[1] = substrate: CC(=O)SCCNC(=O)CCNC(=O)[C@H](O)C(C)(C)COP(=O)(O)OP(=O)(O)OC[C@H]1O[C@@H](n2cnc3c(N)ncnc32)[C@H](O)[C@@H]1OP(=O)(O)O; assay: Ellman (DTNB) colorimetric acetyltransferase assay, Michaelis-Menten fit; format: biochemical, Saccharomyces cerevisiae; settings: fixed yArl3 peptide … 1340 µM, 30–500 µM acetyl-CoA, pH 7.5, 25 °C
Description: Ellman (DTNB) colorimetric acetyltransferase assay, Michaelis-Menten fit on NatC WT (Naa30ΔC17, full-length Naa35, Naa38ΔC11)

[2] = biological target: T1, NatC WT complex (Naa30ΔC17, full-length Naa35, Naa38ΔC11) (S. cerevisiae, UniProt Q03503 1-159; Q02197 1-733; P23059 1-77); assay: crystal structure; purified NatC with CoA (1:3) and substrate peptide … (1:5) or … (1:3) added to the crystallization setup; 14.5–16.5% PEG 4000, 150 mM ammonium iodide, 100 mM sodium citrate pH 6.1–6.3; settings: both partners purified
T1 construct: Naa30, catalytic subunit of NatC, S. cerevisiae, residues 1–159; Naa38, small auxiliary subunit of NatC, S. cerevisiae, residues 1–77; also called heterotrimeric NatC complex; not shown: His6, N-terminal, cleaved; copies: + +
T1 sequence (looked up) 1: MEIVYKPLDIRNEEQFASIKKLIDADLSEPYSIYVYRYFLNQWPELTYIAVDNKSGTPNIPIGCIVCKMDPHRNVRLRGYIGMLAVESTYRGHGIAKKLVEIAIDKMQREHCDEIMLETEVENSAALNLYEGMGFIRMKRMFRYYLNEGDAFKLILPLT
T1 sequence (looked up) 2: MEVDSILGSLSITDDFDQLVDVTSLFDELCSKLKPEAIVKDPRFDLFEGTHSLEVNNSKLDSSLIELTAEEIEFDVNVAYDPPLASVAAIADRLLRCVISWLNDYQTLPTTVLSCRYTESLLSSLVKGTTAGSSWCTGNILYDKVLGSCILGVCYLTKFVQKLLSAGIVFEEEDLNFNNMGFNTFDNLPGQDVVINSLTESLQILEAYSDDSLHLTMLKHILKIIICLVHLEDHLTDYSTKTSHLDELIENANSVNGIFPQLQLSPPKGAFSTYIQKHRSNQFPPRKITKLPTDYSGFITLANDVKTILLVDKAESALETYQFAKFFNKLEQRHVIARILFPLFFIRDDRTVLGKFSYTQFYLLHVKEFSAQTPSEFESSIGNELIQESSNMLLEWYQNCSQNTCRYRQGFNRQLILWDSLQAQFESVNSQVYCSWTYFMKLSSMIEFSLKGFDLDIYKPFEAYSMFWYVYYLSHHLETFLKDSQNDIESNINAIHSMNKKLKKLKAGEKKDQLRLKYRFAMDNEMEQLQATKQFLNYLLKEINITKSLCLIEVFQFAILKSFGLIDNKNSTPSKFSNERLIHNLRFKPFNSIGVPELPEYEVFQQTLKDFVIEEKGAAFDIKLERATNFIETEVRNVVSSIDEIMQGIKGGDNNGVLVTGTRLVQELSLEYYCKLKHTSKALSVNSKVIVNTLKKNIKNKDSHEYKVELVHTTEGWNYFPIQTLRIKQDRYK
T1 sequence (looked up) 3: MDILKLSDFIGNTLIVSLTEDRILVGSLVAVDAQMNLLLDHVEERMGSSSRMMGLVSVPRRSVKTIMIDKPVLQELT

B1: NatC WT (Naa30ΔC17, full-length Naa35, Naa38ΔC11) (Saccharomyces cerevisiae S288C) (protein)
chain: T1 sequence (looked up) 1
notes: heterotrimer co-expressed in E. coli BL21(DE3) from pRSFDuet-1; Naa30 lacks 17 and Naa38 lacks 11 C-terminal residues; His6-tag on Naa35 cut by HRV 3C; with N-alpha-acetyltransferase 35, NatC auxiliary subunit; N-alpha-acetyltransferase 38, NatC auxiliary subunit
How did the Km [1] turn out when B1 was run?
Its Km is 30 ± 6 µM.

B2: Gag peptide (MLRFVGSRRR) (peptide)
peptide: MLRFVGSRRR
notes: the N-terminal five residues of the major capsid protein (Gag) of the S. cerevisiae virus L-A; GS linker and a triple arginine to facilitate peptide solubility; Only the first six residues were modelled in the crystal; source: synthetic peptide (ProteoGenix)
Does B2 bind [2]?
Result: binds
